Where a chain is given by its changes, count along the chain named.
B1: IGF1R-5_H3 (VHH)
VHH: QVQLVESGGGLVQPGGSLRLSCAASGRTIDNYAMAWSRQAPGKGLEFVATIDWGDGGTRYANSVKGRFTISRDNSKNTMYLQMNSLRAEDTAVYYCAMARQSRVNLDVARYDYWGQGTLVTVSS
notes: Humanized variant of IGF1R-5, expressed from pSJF2H in E. coli
B2: IGF1R-5_H1 (VHH)
VHH: B1 VHH with Q1E, S37V, F47W, A49S, M79L
notes: as for B1
B3: IGF1R-5_H5 (VHH)
VHH: B1 VHH with G44D, L45R, N77G, Y95S
notes: as for B1
B4: IGF1R-5_H6 (VHH)
VHH: B1 VHH with Q1E, G44D, L45R, A49S, M79L
notes: as for B1
B5: IGF1R-5_H2 (VHH)
VHH: B1 VHH with S37V, F47W
notes: Humanized variant of IGF1R-5, expressed from pSJF2H in E. coli; also called IGF1R H2
B6: IGF1R-5 VHH (VHH)
VHH: QVKLEESGGGLVQAGGSLRLSCAASGRTIDNYAMAWSRQAPGKDREFVATIDWGDGGARYANSVKGRFTISRDNAKGTMYLQMNNLEPEDTAVYSCAMARQSRVNLDVARYDYWGQGTQVTVSS
notes: Llama VHH expressed in E. coli TG1 from vector pSJF2H and purified by IMAC; Monomeric by SEC; also called anti-IGF1R VHH IGF1R-5; wild-type IGF1R-5

Target: T1, recombinant extracellular portion of human IGF1R (IGF1R^933-His fragment) (human, UniProt P08069 31-933)
T1 construct: It holds a furin site (RKRR) between the alpha and beta subunits, so the protein may be cleaved into two disulphide-linked chains; also called h-IGF1R; recombinant human IGF1R; not shown: His tag from vector pCDN4/myc-His
T1 sequence (P08069 31-933): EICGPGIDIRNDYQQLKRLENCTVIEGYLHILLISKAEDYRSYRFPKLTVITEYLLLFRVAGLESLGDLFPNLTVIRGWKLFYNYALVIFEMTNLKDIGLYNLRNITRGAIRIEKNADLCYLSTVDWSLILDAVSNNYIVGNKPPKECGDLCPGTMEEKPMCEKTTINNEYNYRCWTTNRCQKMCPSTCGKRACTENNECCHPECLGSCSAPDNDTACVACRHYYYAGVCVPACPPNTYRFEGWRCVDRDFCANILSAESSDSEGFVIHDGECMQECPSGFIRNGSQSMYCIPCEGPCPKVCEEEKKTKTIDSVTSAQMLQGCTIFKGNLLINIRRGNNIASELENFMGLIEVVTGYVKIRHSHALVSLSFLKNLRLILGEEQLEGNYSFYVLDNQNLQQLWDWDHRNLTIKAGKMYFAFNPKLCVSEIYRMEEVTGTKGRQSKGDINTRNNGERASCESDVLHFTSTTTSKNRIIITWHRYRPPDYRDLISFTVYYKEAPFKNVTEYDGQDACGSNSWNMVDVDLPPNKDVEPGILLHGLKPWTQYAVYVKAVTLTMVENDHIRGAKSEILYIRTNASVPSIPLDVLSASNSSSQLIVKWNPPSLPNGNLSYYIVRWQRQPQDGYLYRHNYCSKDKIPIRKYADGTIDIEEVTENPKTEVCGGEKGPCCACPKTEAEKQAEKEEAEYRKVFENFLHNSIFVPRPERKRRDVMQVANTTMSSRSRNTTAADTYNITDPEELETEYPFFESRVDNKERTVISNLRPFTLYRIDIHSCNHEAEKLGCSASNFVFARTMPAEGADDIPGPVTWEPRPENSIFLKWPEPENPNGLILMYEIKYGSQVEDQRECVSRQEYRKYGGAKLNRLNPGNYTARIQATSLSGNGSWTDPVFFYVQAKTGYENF
Test: SPR (BIACORE 3000), human IGF1R immobilized on CM5, VHH injected, 1:1 model, 25 C
Protocol: Approximately 3000 Resonance Units (RU) of recombinant human IGF1R (R&D Systems) were immobilized on a Sensor chip CM5. Immobilization was carried out at a concentration of 10 μg/ml in 10 mM acetate at pH4.0 using the amine coupling kit supplied by the manufacturer. The remaining binding sites were blocked with 1M ethanolamine pH 8.5. An ethanolamine blocked surface was used as a reference surface. For the binding studies, analyses were carried out at 25° C. in 10 mM HEPES, pH7.4 containing 150 mM NaCl, 3 mM EDTA and 0.005% surfactant P20 (Polyoxyethylenesorbitan; GE Healthcare). […] Surfaces were regenerated with 10 mM glycine pH 2.0 with a contact time of 24 seconds. Data were analyzed with BIAevaluation 4.1 software (GE Healthcare).

| Kd [nM] | koff [s⁻¹] | kon [M⁻¹ s⁻¹] | Binder |
| --- | --- | --- | --- |
| 0.8 | 0.00041 | 520000 | B1 |
| 11 | 0.0043 | 390000 | B2 |
| 1.6 | 0.0008 | 500000 | B3 |
| 1.7 | 0.00072 | 430000 | B4 |
| 7.5 | 0.0029 | 380000 | B5 |
| 0.6 | 0.00034 | 530000 | B6 |

— patent publication US20170015748A1 (NATIONAL RESEARCH COUNCIL OF CANADA, published 2017)
